# Source: the DeepSol protein solubility set
# Test: soluble on expression in E. coli; label from the status in PepcDB or PDB records
row,Sequence,soluble on expression in E. coli
1,MLWPFRWVWWKRVLTSQTRAPAKPNPLTVPPTCTWWSLRKLPNPTKLDDDLKNLLDPNEVRARMLKSFGTENFTQPQPQPQALKTTTPVFGTSSGNLGSVLSGGGYHAGLKHHQSTVTRSTGEWVDR,soluble
2,MEQAPPDPEKLLQPGPLEPLGGPGAVLEAAVGEENEGTREDGSGVDTMTGNNFWLKKIEISVSEAEKRTGRNAVNMQETYTAYLIETRSVEHADGQSVLTDSLWRRYSEFELLRNYLLVYYPHVVVPPLPEKRAEFVWHKLSADNMDPDFVERRRVGLENFLLRVASHPVLCRDKIFYSFLTQEGNWKETVNETGFQLKADSRLKALNATFRVKNPDKRFTELRHYSDELQSVISHLLRVRARVADRLYGVYKVHGNYGRVFSEWSAIEKEMGDGLQSAGHHMDVYASSIDDILEDEEHYADQLKEYLFYAEALRAVCRKHELMQYDLETAAQDLAAKKQQCEELATGTVRTFSLKGMTTKLFGQETPEQREARIKVLEEQINEGEQQLKSKNLEGREFVKNAWADIERFKEQKNRDLKEALISYAVMQISMCKKGIQVWTNAKECFSKM,soluble
3,MQYHEIGKTGMKVSSLSFGASSLGGVFHDLKEKEGIQAVFTAIEAGMNFIDVSPYYGHYKAETVLGKALKDIPRDRYYLSTKVGRYGKDGVNTWDYSAKRATESVYESMERLNIDFIDLINVHDIEFADLNQVVNETLPALVELREKGVVGHVGITDLQLENLKWVIDRSPSGTIESVLSFCHYCLCDDKLADFLDYFESKEIGVINASPLSMGLLSERGVPVWHPAPKPLVDACRKAMEHCKAKNYPIEKLAMQFSVSNPKIATTLFSTTNPENVKKNIGFIEEPVDWELVREVREIIGEQQRVSWANS,not soluble
4,MDPLDDLLTQLEGVEEEELKPVNRAPRLLNMEEACENQGSSEKPSDSSSKNRYEDDDSDDEELYVKKRELTEQGALLKRHLEKNSSTSGPKATDAWKTNKKSVLTGLTKPSTDTVTVGIVRFDKFQISIRNPKISATSFGAFTAGMKLEKLSNLKPTSNFKEAWCTIGVIVEKGFKKKSANGNDFLIWKLHDLKDCQTQPVKLLMFGDAIKDHWEIKLGSVIALISAQIADDSTASGAKKTVSATLKVAKSNNIVEIGQSAHFGTCKGIRQQDGQRCSNFVNSSLSEFCVFHVMSAARKLSAKRGVFNAVTCGPNVGGLSFNKKPGTPRPPISSRPGISGSGLATSSGSPMLRDTMRPADSFTLTTPTSGLKKITKEEEKSSLNDLLSQRKNTFAARQMLKLKEKKDEKLAESVEEMIEFLGTTGGEEKPSVHSSFGEFLAADTRREKAATVDLRASSATSGTSASSPGGSKLWTMSLANKKAAPLGHKDAQEHAARLRAIAILKAKRKEAEMEKLTGGGGGVKRKASGTPTAPEPEAKKPRSQKMDEIRAMLARKSTHHKEAEKAEHDMLQRHLTGMEEREKVETFTTTCVEVKNVKVVTCNQCKYTSQFASSECIKKEHKLIKHTADKRFFKCTGCKKRTVCFEMMPVKHCAHCNENKWERVAMKDERKVVLDTENLLLRGEERPFVGS,not soluble
5,MAKKMKLSDITNMFAGMDVEALEGVTIEGDIEIDLGGLGGGFDPMLAAALGQESAVLAQHFARIAGMFGYPVGIGAPAAPAISPALAAPKLKDLIPAKFDVANIAEWATQIQEVPIGNTSADGGSRGKRVLVGGEKALPFFPDAPMPNRNQVTIDVFDMRIGLAKAVKENYDEVMDSPGEWAKKNVEKFNADMITIHLISTDPLVKDTPPKEAAKTVEEVLQAVDVPIAIGGSGNPQKDPEVLARAAEVAEGERCLLASASLNLDYAAIAEAALKYDHDVLSWTQLDMNAQKELNRKLMKQCNVPRDRIIMDPTTAALGYGLDYAYTNMERIRLAALMGDDELTFPMSSGTTNAWGARESWMVGSPLKEDSDWGPREYRGPIWEIVTGLSLAIAGNDLFMMMHPTSVAVLKQITQTLFGTIDTEQVDIANWIGAEV,not soluble
6,SEKKECPEKSSSSEEELPRRDSGSSRNIDASKLIRLQGSRKLLVDNSIRELQYTKTGIFFQAEACVTNDTVYRELPCVSETLCDISHFFQEDDETEAEPLLFRAVPECQLSGGDIPSVSEEQESSEGQDSGDICSEENQIVSSYASKVCFEIEEDYKNRQFLGPEGNVDVELIDKSTNRYSVWFPTAGWYLWSATGLGFLVRDEVTVTIAFGSWSQHLALDLQHHEQWLVGGPLFDVTAEPEEAVAEIHLPHSISLQAGEVDVSWFLVAHFKNEGMVLEHPARVEPFYAVLESPSFSLMGILLRIASGTRLSIPITSNTLIYYHPHPEDIKFHLYLVPSDALLTKAIDDEEDRFHGVRLQTSPPMEPLNFGSSYIVSNSANLKVMPKWISSL,soluble
7,LGSPMAYFVENFWGEKNSGFDVLYHNMKHGQISTKELADFVRERATIEEAYSRSMTKLAKSASNYSQLGTFAPVWDVFKTSTEKLANCHLDLVRKLQELIKEVQKYGEEQVKSHKKTKEEVAGTLEAVQTIQSITQALQKSKENYNAKCVEQERLKKEGATQREIEKAAVKSKKATDTYKLYVEKYALAKADFEQKMTETAQKFQDIEETHLIHIKEIIGSLSNAIKEIHLQIGQVHEEFINNMANTTVESLIQKFAESKGTGKERPGLIEFEECD,soluble
8,MGSDKIHHHHHHMKLYVSFAARIRAMIDEGVLRPGDKIFSVRQASQKYGLSISTVLRGYLLLEQEGIISSHPQSGYYVTPRKRLQRHETSPLSKDINLSEVDASKLVLTTLKSIREFGTVPLGSPFPDPQLFPLKKIHQYEKALTDDEGEWGVLSDLPPGNEMLRQQIARRYLANGMDVSPDDIVITHGATEAITLCLQAVAKAGDVIALESPGYYALAHTVERLGMKVAELRTDPDSGIDLDALRATAGNVRIAAVILTANFQNPLGFVMPDAKKQALVAFLEEQQIPLIEDDVYGELYFSETAPKPAKAFDRSGLVLHCASFSKSLAPGYRVGWTVAGRYRQEVERLMFLNSLSMPSAPQIAIAKFMQRDSFERHLKQLRHTLRSQYVLIRNVIEESFPAGTQLSAPKGGYVIWVNLPAPLDALKLYRAAIDNGITVAPGTIFSRKKDLTHYIRLNFSHLWTLAIEQAVRQVGALACGMLADAGNGEA,not soluble
9,MRVYVFTPDGDVLDLPHGVTPLDFAYHVHSNLGHRCRGAKVNGHIVPLTYQLKTGDRVEVLTGKEIKPSRLEHHHHHH,not soluble
10,MTDKQYSLDDIRLRLNELDDQLLNLLSERRKMSIEVAKSKVETAKPVRDPAREQQLLVKLINAGKEKYQLDPQYITKIFHTIIEDSVLLQQSYLQNLANPQSRKPLARVAFLGAKGSYSHLATREYFSRKNTELIELNCDHFKEVARTVESGHADYGVLPIENTSSGSINEVYDLLQHTTLYIVGELTQPIEHCLVATQEIRLEDLKVLYSHPQPHQQCSEFLSRLKGVKLESCASTADAMKKVQELNRADVAAIGNSASGKLYGLQPIQGNIANQTENHTRFIVVARKPVDVSPQIPAKTTLIMSTSQEAGSLVSTLLVLQRYGINMTKLESRPIMGNPWEEMFYVDLEAHIDSDEMQQALAELTQLTRHLKVLGCYPSENVKPTQVKFI,not soluble
11,MSLDRVYHEFGATLRQLYQQDTPIIALCAAGIVIRTLAPLLLEKGAEPPVLAVAEDGSAVVPLLGGLGGVNVMAREIAAGLGVAAAITTSGELRFGTCLLNPPSGYALGDLELGKRFVSDLLGGESVRIEGAAPWLAAAKLPENDQARLTIRVGSAEREPVANELLIYPRSVLVACRGQRLAGEADSDLATHIRQALHQARIAVQSVACLLAADRDMADRALHQAAAQLGVPLRFLPAADSVAELAQQAVPQLLPPLKVGEDIAIAVASQPLDPEQIGRPREGHHHHHH,not soluble
12,MGSDKIHHHHHHMKLGVFTVLYGNLSFTEMLDKVKGAGVQAVEIGTGGYPGDAHCPRQELLTSAEKRKRYQEELEQRGLLLGSFSCHGNPLSPDEAFRKESDQALRETIELAGKMNVPVVNCFSGTAGDHEGAKYPNWPVAPWPNEYRHILEWQWEEKLIPYWKEIGEWAETHGVKVALELHGGFLVHTPYTLLTLRKATSPAIGANLDPSHLWWQGIDPVAAIKILGREGAIHHFHAKDTFIDQEQVNMYGLTDMQPYTHIQTRAWNFRSVGCGHDLHEWTQMISALRTYGYDHVISIEHEDPLMSIDEGFETAVRNLKPLLIKEKPTEMWWA,not soluble
13,MEKENTNGGSVYVTVDGHFKPVHVSMKGTGEKGFLEFMLEDVEKALKETEMPVIGMMYYNVPDMGIVPHLWEGNNDDYLQRLEKAMDGHGIKLHRYLRLSEVVYCL,not soluble
14,MSVVDMSAEKMTKLEENLQRAVALKKTVDRWRNFHIHCMWQTTLDQRRNLFAALRMKDTKEQELALSNKQLLVVRQAALHELFEKEYQQYQQELNQMGKAFYEERL,not soluble
